Common to all, as to format: biochemical
One data set concerns the target T1, Aβ (1-40) (Homo sapiens, UniProt P05067).
T1 construct: 2 μg of Aβ (1-40)(Bachem Inc., Torrance, Calif. USA; Lot #WM365); purchased Bachem Inc., Torrance, Calif; Lot #WM365
As to the kind of experiment: Thioflavin T fluorometry, Aβ (1-40) amyloid fibril formation. The following applies: for dose dependence of inhibition of Aβ fibril formation, in words: 5 nM, 15 nM, 40 nM and 100 nM laminin, 1 week (FIG. 4); for fold inhibition of Aβ (1-40) amyloid fibril formation (fluorescence lower than Aβ alone): 37° C.; for fold decrease of Aβ fibrillogenesis: comparison study (FIG. 3); for inhibition of Aβ fibril formation, in words: dose study (FIG. 4), 3 days and 7 days. On the procedure:
The effects of laminin on Aβ fibrillogenesis was also determined using the previously described method of Thioflavin T fluorometry (Naiki et al, Lab. Invest. 65:104-110, 1991; Levine III, Protein Sci. 2:404-410, 1993; Levine III, Int. J. Exp. Clin. Invest. 2:1-6, 1995; Naiki and Nakakuki, Lab. Invest. 74:374-383, 1996). In this assay, Thioflavin T binds specifically to fibrillar amyloid and this binding produces a fluorescence enhancement at 480 nm that is directly proportional to the amount of amyloid fibrils formed (Naiki et al, Lab. Invest. 65:104-110, 1991; Levine III, Protein Sci. 2:404-410, 1993; Levine III, Int. J. Exp. Clin. Invest. 2:1-6, 1995; Naiki and Nakakuki, Lab. Invest. 74:374-383, 1996). In a first study, the effects of EHS laminin on Aβ (1-40) fibrillogenesis was assessed. For this study, 25 μM of freshly solubilized Aβ (1-40)(Bachem Inc., Torrance, Calif., USA; Lot #WM365) was incubated in microcentrifuge tubes at 37° C. for 1 week (in triplicate), either alone, or in the presence of 100 nM EHS laminin (Sigma Chemical Company, St. Louis, Mo., USA) in 100 mM Tris, 50 mM NaCl, pH 7.0 (TBS). 100 nM of laminin utilized for these studies represented a Aβ:laminin molar ratio of 250:1. 50 μl aliquots were then taken from each tube for analysis at 1 hr, 1 day, 3 days, and 1 week. In a second set of studies, the effects of laminin on Aβ (1 -40) fibril formation was directly compared to other basement membrane components including fibronectin, type IV collagen and perlecan. For these studies, 25 μM of freshly solubilized Aβ (1-40) was incubated in microcentrifuge tubes for 1 week (in triplicate) either alone, or in the presence of 100 nM of EHS perlecan (isolated as previously described)(Castillo et al, J. Biochem. 120:433-444, 1996), fibronectin (Sigma Chemical Company, St. Louis, Mo., USA) or type IV collagen (Sigma Chemical Company, St. Louis, Mo., USA). 50 ul aliquots were then taken for analysis at 1 hour, 1 day, 3 days and 1 week. In a third set of studies, 25 μM of freshly solubilized Aβ (1-40) was incubated in microcentrifuge tubes for 1 week (in triplicate) either alone, or in the presence of increasing concentrations of laminin (i.e. 5 nM, 15 nM, 40 nM and 100 nM). 50 μl aliquots were taken for analysis at 1 hour, 1 day, 3 days and 1 week.
For each determination described above, following each incubation period, Aβ peptides +/− laminin, perlecan, fibronectin or type IV collagen, were added to 1.2 ml of 100 μM Thioflavin T (Sigma Chemical Co., St. Louis, Mo.) in 50 mM phosphate buffer (pH 6.0). Fluorescence emission at 480 nm was measured on a Turner instrument-model 450 fluorometer at an excitation wavelength of 450 nm. For each determination, the fluorometer was calibrated by zeroing in the presence of the Thioflavin T reagent alone, and by seting the 50 ng/ml riboflavin (Sigma Chemical Co., St. Louis, Mo.) in the Thioflavin T reagent to 1800 fluorescence units. All fluorescence determinations were based on these references and any background fluorescence given off by laminin, perlecan, type IV collagen, or fibronectin alone in the presence of the Thioflavin T reagent was always subtracted from all pertinent readings.

Data set [1] concerns the target T2, pre-formed Aβ (1-40) amyloid fibrils (Homo sapiens, UniProt P05067).
T2 construct: 2 μg of Aβ (1-40)(Bachem Inc., Torrance, Calif. USA; Lot #WM365); purchased Bachem Inc., Torrance, Calif; Lot #WM365
Nature of the data set: Thioflavin T fluorometry, dissolution of pre-formed Aβ (1-40) amyloid fibrils. The following applies: for dissolution of pre-formed Aβ amyloid fibrils: 25 μM fibrillized Aβ, 4 day incubation; for dose dependence of dissolution of pre-formed Aβ amyloid fibrils, in words: 16-125 nM laminin, 4 day incubation (FIG. 5). The protocol:
For this study, 1 mg of Aβ (1-40)(Bachem Inc., Torrance, Calif., USA; Lot #WM365) was dissolved in 1.0 ml of double distilled water (1 mg/ml solution) and then incubated at 37° C. for 1 week. 25 μM of fibrillized Aβ was then incubated at 37° C. in the presence or absence of laminin (from EHS tumor; Sigma Chemical Company, St. Louis, Mo., USA) at concentrations of 125 nM, 63 nM, 31 nM and 16 nM containing 150 mM Tris HCl, 10 mM NaCl, pH 7.0. Following a 4 day incubation, 50 μl aliquots were added to 1.2 ml of 100 μM Thioflavin T (Sigma Chemical Co., St. Louis, Mo.) in 50 mM NaPO4 (pH 6.0) for fluorometry readings as described in example 2.

The target of data set [2] is T3, islet amyloid polypeptide (amylin) (Homo sapiens, UniProt P10997).
T3 construct: The major protein in islet amyloid is a 37 amino acid peptide, termed islet amyloid polypeptide or amylin
T3 sequence (P10997 34-70): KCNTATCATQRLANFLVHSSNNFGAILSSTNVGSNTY
As to the kind of experiment: Thioflavin T fluorometry, islet amyloid polypeptide (amylin) fibril formation.

Entries after “also recorded” stand apart in the source; their conditions may differ.

T2 sequence (P05067 672-711 limits assumed): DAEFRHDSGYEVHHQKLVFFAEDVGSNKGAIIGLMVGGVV
T1 sequence (P05067 672-711 limits assumed): as above

Regarding “laminin: Engelbreth-Holm-Swarm (EHS) mouse tumor laminin (Sigma); 850 kDa basement membrane glycoprotein of A, B1 and B2 chains”, the “dose dependence of inhibition of Aβ fibril formation, in words” value in the data set with Aβ (1-40) was “dose-dependent manner; also recorded: Significant dose-dependent inhibition”; with Aβ (1-40) (listed as Laminin), “dose-dependent manner”. The “fold inhibition of Aβ (1-40) amyloid fibril formation (fluorescence lower than Aβ alone)” value in the data set with Aβ (1-40) (25 μM Aβ (1-40), 100 nM laminin, 1 week (FIG. 2)) came to 27.1 fold; in the data set with Aβ (1-40) (25 μM Aβ (1-40), 100 nM laminin, 1 hour (FIG. 2)) it was 2.9 fold; with Aβ (1-40) (25 μM Aβ (1-40), 100 nM laminin, 1 day (FIG. 2)), 4.6 fold; with Aβ (1-40) (25 μM Aβ (1-40), 100 nM laminin, 3 days (FIG. 2)), 30.6 fold. Moreover, the “effect on Aβ (1-40) fibrillogenesis, in words” value in the data set with Aβ (1-40) (comparison of basement membrane components (FIG. 3), 25 μM Aβ (1-40), 100 nM, 1 hour to 1 week) was “potent inhibitory effect”. For the same substance, the “fold decrease of Aβ fibrillogenesis” value with Aβ (1-40) (25 μM Aβ (1-40), 100 nM, 1 week) is listed as 21 fold; in the data set with Aβ (1-40) (25 μM Aβ (1-40), 100 nM, 1 day), 9 fold; with Aβ (1-40) (25 μM Aβ (1-40), 100 nM, 3 days), 9 fold. Besides, the “inhibition of Aβ fibril formation, in words” value with Aβ (1-40) (40 nM laminin) was “significantly inhibited”; in the data set with Aβ (1-40) (100 nM laminin, 1 hour, 1 day), “significantly inhibited”. The “dissolution of pre-formed Aβ amyloid fibrils” value in data set [1] (16 nM laminin) is 25%; in data set [1] (31 nM laminin), 28%; in data set [1] (63 nM laminin) it was 39%; in data set [1] (125 nM laminin), 41%. Also, the “dose dependence of dissolution of pre-formed Aβ amyloid fibrils, in words” value in data set [1] is given as “dissolution of pre-formed Alzheimer's disease amyloid fibrils in a dose-dependent manner”; in data set [1] (listed as Laminin) it was “dose-dependent manner”. Further, the “inhibition of amylin fibrillogenesis, in words” value in data set [2] (40 nM, 15 nM and 5 nM laminin, 1 week (FIG. 6)) is on record as “no significant inhibition”. The “inhibition of amylin fibril formation, in words” value in data set [2] (100 nM laminin, all time points within 1 week (FIG. 6)) is on record as “did not significantly inhibit; also recorded: does not significantly inhibit”.
